Experiment: soluble on expression in E. coli; label from the status in PepcDB or PDB records

Sequence	soluble on expression in E. coli
MAHHHHHHMAADKDTPDSLGHSQTMAAEGTKGVATEQQPQASPSSSSAAAAATSMSVAETTATDATTAAASRKAPAPHDKAVAVNEGSTARVAAASSSSSTASSSASVDEQRRRRLALYGSRAMAAGGKKGPALAADPHHPSTPHGSAHGRHALTAFGARRGGELAFYIQQGGDLTSQGRYLVIGDGLMAPFMALCLRVHGLECDLAHHPSQNDLDRGTVVLTPSVTQLMGDVLNVSVPSGSVVGRVLTFDHVGNDMCDVDLNEFREKGESPTFFCCDRLKVESALMSLCRIGAHSCMVLPKPQIDKGGLEPLESGGVRVRFTSGLQQDYLGVICTARNQELVPELTITNEELQARAENAEKYRDTFSKSVRWMELCVPPLPELGKFEKRFTPGSQEIVEILTPRDAKMTVRPTMMATKLFYNVTLTIPDGTADPRLKSTSTKLFWDDVVMHWTSGVPGYISHTMFRPMFTHLQQNFTKSSALVYRTPLFLMPHWSEGGGRVIKVAHAAHGSCFDAVDVSDAQGFTDCFTLARTIAGGEDVAAFLKERRLQVMEEMDHHSRLTYYGLKERGQMAYMMSRFNMKIMRKYKKSWRSILQNYVTLMPKSIPR	soluble
MHPKDQSVTLLSIIRDYLKLSDKEREAARILANGLVKVDGKTVREKKFAVGFMDVIEINGESYRVVYNDQGALVLMKETKERASMKLLKVRSKVIAPGNRIQLGTHDGRTFITDDKSKKVGDVWAVSVPDMKISEIIKMQPGNKAYITAGSHVNQTGTISKIEAKEGSSANLVHFQEGFSTIKDHVFMIGSSKFSFVLSPEEVIPLEHHHHHH	soluble
MLATPFWYNAALKVLKPVYRWRIKKRAENEMRYQQECRERFGPFQQPQNRHALWFHAVSVGETNAAQPLIEYYLKLGHPVLVTNTTKTGQARAKSLFLKSPYLELFQAVYLPVDQIFLLKQFFELYQPKLLALVETELWPNLIDQAQHYGVPTFLINARLSEKSAQGYARVSALSNAMLSRLTGLLAQDQSTQQRFIGLGLAREKAQVVGNIKFDIDVPLLFVLEHHHHHH	not soluble
MSGASSITATEPYRDVQIRPAVAPDVARVAAIDEAATGEAKPRYWQSLFENFSQARAGCRAFLIAELKGEVVGFICGEVRDFEFGAESCGWVFALTVDPAIRVNSIGTQLFEEICQIFTQAGVRKVRTMIEHDNQLVMAFFRSQGLMVGRFIGMEKNLD	soluble
MMVYQRPVFTVISLLRIRNREEAKLVLIGAVVVYRNFVEQTLADAQKNWVKSLVLYDDPGDAVTGILTWFSRYACLHGPRLGPLDTIAVNDNPLYIYCPRRKLEEYAKERIVSFHSEIGSVVCSMSPFDAGVTREKVRYGHNLISPGSCLLPDALEAYVAFLPSKSFLKLPYSVYEVHNDRYVHKFFALLPGSRFHFEVVAVGLAYPAAKKRPSGLGILRCCFTGKTNTCLLEHHHHHH	soluble
MGHHHHHHSHGSSAEIAATLGLPVVLVVDVRGMSQSVGAVVRGFATADPHVRIAGVILNKVGTDRHAEVCREAVEAVGVRVLGAIP	not soluble
MAIDNIKAYVHLSDADIEEIGRRLDQIKAEVTQSLGARDVAYIKRLIRTQRSLEAAGRFALLFAGNKKCWWLGTGLLSTAKILENLEIGHNVLHGQWDWMNDPEIHSTTWEWDIVCPSSQWMHSHNFVHHTYTNVLGMDNDVGYGILRVTRDRKWTPLHAFQPAVNTVLAAMFQWAVGYYDVELGRYLTKRADWNDTKDKFWETTNKAGRQLARDYVFYPALARKAFPQAVKANAVANLVRSVWAYSVIFCGHFPDEAETFTKEQFKNEDHNQWYLRQMLGSANFYGGKLLTIMSGNLNYQIEHHLFPDMPSNRLAEVGEKVRALCDEYDLPYNVDSFPAQLFKVQKTLLKLTLPNKYLVASPDNAPEVRSNRAFSQNPELEHHHHHH	soluble
IKKPMSASALFVQDHRPQFLIENPKTSLEDATLQIEELWKTLSEEEKLKYEEKATKDLERYNSQMKRAIEQESQMSLKD	soluble
ELYVVASPKSPIMEINKEQLSALYLGRNRVVGNTYINQVLDRSGTVRQRFFLQVTNMQESQINAYWAKLKFSGRLRAPESVVSEQELIAKLEENPFSIGYTDQVPSDALKVLLVL	not soluble
MTLSKRLALLGAQSAITLAKPRGLGSSLGLLDRRPFPYRQFSELTKANGRRAFLVDTLALVRSLEAQGVPSKQAEAITSAITEVLNDSLENVSESFVSKAEMQKIEMIQDSNLSKFKSEVKSSQEHHFTVLQRETEKLRGDIEKMRSELRYEIDKVTAGQRLDLNLERGRIRDELANQNTETTNLTNKLDREIHALRAQLEASKYEVIKYCIGTLVSISAVGLAVLRIMI	not soluble
MKSSLSLLLLTSALSNFALATEIKSGGETSTTKEGANAFSMPAANLPMAKRLDFSVGNSFFRNPWVPAPASTDARDGLGPLFNTNGCQNCHIKDGRGHPPEPNDTQAVSMLVRLSIPAVTEQQKAIYAVNGVVPEPTYGGQLQDFSLPDQKPEGRIHITYDEVVVTFADGTPVALRKPNLKILDLAYGEMHPDVQMSARVAPPMIGLGLLEAIPDATLLQWADPEDRDGDGISGRVNQVRDVRTGEMAIGRFGWKAGQPNIMQQNAAAFNGDLGLTSHLFPQENCTEKQTLCRDLPNGGSPEVSDNILDFVEFYAQHLAVPVRRNVQDPQVQLGEKLFAQAGCQSCHKTNVLTQELAERPALSKQRIQPYTDLLLHDMGEGLSDGRPEALASAREWRTAPLWGIGYTQEVNGHTYFLHDGRARNVLEAVLWHGGEAQASRDKVLQFDKAQREALVAFLNSL	not soluble
METLIAISRWLAKQHVVTWCVQQEGELWCANAFYLFDAQKVAFYILTEEKTRHAQMSGPQAAVAGTVNGQPKTVALIRGVQFKGEIRRLEGEESDLARKAYNRRFPVARMLSAPVWEIRLDEIKFTDNTLGFGKKMIWLRDSGTEQA	soluble
MKALIFAAGFGERMRPLTEHTPKPLLSVGGAPLIVWHLRKLAALGVDEAVINTSWLAEQFPQLLGDGSAYGLRLTYSYEGTTPLETGGGMLHALPLLGDAPFLLINGDIWTDFDFSRLSHAPKGLAELVLVDRPSYAARADFALDADGKVRVDLPATLTYSGIGMYRPALLRDWQSVNGPLPEQVGTAPRFALAPILRAKMAQGLIDGIHHPGRWTDVGTPQRLAALDAQLLGDGGLEHHHHHH	not soluble
DALAVALLQARGFSAEDFALSHPGGALGRKLLLKLSDIMHFGNALPKVSPDALIRDALLEISEKGLGMTAIVDEHDAMLGIFTDGDLRRTLDKRIDIHTTAIGEVMTKNPTTAHPEMLAVEGLNLMQNKNINALILCKEDKIVGALNMHDLLKAGVM	not soluble
MGHHHHHHSHMEEMKKTAIRLPKGKQKPIKTEWNSRCVLFTYFQGDISSVVDEHFSRALSNIKSPQELTPSSQSEGVMLKNDDSMSPNQWRYSSPWTKPQPEVPVTNRAANCNLHVPGPMAVNQFSPSLARRASVRPGELWHFSSLAGTSSLEPGYSHPFPARHLVPEPQPDGKREPLLSLLQQDRCLARPQESAARENGNPGQIAGSTGLLFNLPPGSVHYKKLYVSRGSASTSLPNETLSELETPGKYSLTPPNHWGHPHRYLQHL	not soluble
MRKIIKGREPDAWLKYRCTPGAVYQRKPALADSLLLEQGYVCAYCEKRIDVQDLRVEHIKPRSQYPAQQLSYSNMVACCSGQSQGSAHCDCSKKDEEITLNLFTDALFLSISYKHDGTISSANKSWNDDINITLNLNCLSLKENRKLALEGLLEIIKKEDYSQGVLKRLKARYEAKDKGHKFAEYRGIILYYIDKKLSP	not soluble
MDMPHSTTHDASPAPCQRCGMAGATCCTIDPTDASLCFPVSRSEWERIVDHCDKRGGFATEPNTRPFVDNLIRLFPGEAREIERLFPPHGFHLRLAVDAKGNCAFLGPEGCTLPREVRPWYCLVFPFWLQGGRIAIFTPSGCVAVREGRTVPGCLALMNFTARDVRRLAGRLRLAWGLPPLDENGETLLEHHHHHH	not soluble
AHHHHHHGSGLISDADKKVIKEEFFSKMVNPVKLIVFVRKDHCQYCDQLKQLVQELSELTDKLSYEIVDFDTPEGKELAKRYRIDRAPATTITQDGKDFGVRYFGLPAGHEFAAFLEDIVDVSREETNLMDETKQAIRNIDQDVRILVFVTPTCPYCPLAVRMAHKFAIENTKAGKGKILGDMVEAIEYPEWADQYNVMAVPKIVIQVNGEDRVEFEGAYPEKMFLEKLLSALS	soluble
MSLTIPGVVIIGGAHGTLALARSLGVLNVPVYYLTHDSPLPGWSRFVRETIRWAGPHDDGAMAFLREMAEKPGLKGCLLVPSGDGEVQLVSQHREELSALYKIILPEWTNLQWLCEKPLLYKRAAELGVSIPRTYALTSAADIDGLDVMFPVILKPHMGGGNTSIARAKVIRADDREELKAAFVDASGEIGPDNVVVQELIPGGGESQFSYAALWLNGEPIAEFTARRARQYPVDFGYTSTRVEVVDNRQAIEAARKILKSAGHSGLVEVEFKLDGRDGALKLLDVNPRPWSWFGLCSAAGINLGGLLWRVANEGHHHHHH	soluble
MGSDKIHHHHHHVVAEAVNLQFDYSRYGFRQEERYVYKAPKGLNERIVRELSGMKGEPEWMLKRRLRALEIFNKKPTPLVGTWANPELAELNYDDIHYFVRANERPQTDWDAVPPEIKNTFERLGIPEAERKFLAGVGAQYESEVVYHSLREEWAKQGVIFLDTDTALKEYPEFFKEYFGTIVPAADNKYAALNTAVWSGGSFVYVPKGVKVDIPLQAYFRINAERMGQFERTLIIIDEGAEAHYIEGCTAPIYSTNSLHSAVVEVIVKKGGKFRYTTIQNWANNIFNLVTKRAVAYEEASMEWVDGNIGSKLTMKYPSVYLMGRKARGEVLSVAYAGRGQHQDAGAKMIHLAPETTSRITNKSVSKDGGKTTYRGLAKVAPGAYGAKINVNCDALILDEHSASDTIPYIEIEEDRCTLAHEATVGRIGAEQLFYLMSRGISESDALSMIVLGFMEPFTRELPMEYAVELNRLIQLEMEGSVG	not soluble
MGSDKIHHHHHHMSVLIECRDLSHSYGEKTVLHDLSFTVRQGGVFGLLGKNGAGKSTTINILMGFLRPGSGSCRVLGEPSHALSPHARRRIGLLHEGFIQYDFMTIAELERYYAAFYPLWDRSVFFDLTDRLQVPYSRRISCLSCGQRSQVVLGLIMAQQPQLMILDDYSMGLDVGYRRLFIDFLREYVAKRGTTVLLTSHVVQELDKIVDNMIVLREGRVAVSGSKKEFMDSFRCYSFARSPASDALHADTVLENVEHMGSVTTVYAFADGEPVARHLRDRGVDPQNMTPVPMDFEDAFVGLTGKY	not soluble
MGSDKIHHHHHHMKTPLVITALSLCLPFMAHAGSSFVEGDDILAGEVELGATLTTGNTDTSSFKGRLALKHELGNWENQYLLEGLYKEDTETVTAKRYIVGAQGDYLIDHDSYIFSNMNYEVDPFTGYEYSFTAASGYGHKFINDDRTKLKAEIGPGFIYQKLDSTLAAIEGYDTDKSVVAHAVINFETKLGDSSKFGQKLVMDMGEKIDARSETSLTANIVGALAMKFAVIVRYNSNPLDSKTSTDTETNMTLLYAF	not soluble
MGSDKIHHHHHHMKLYVSFAARIRAMIDEGVLRPGDKIFSVRQASQKYGLSISTVLRGYLLLEQEGIISSHPQSGYYVTPRKRLQRHETSPLSKDINLSEVDASKLVLTTLKSIREFGTVPLGSPFPDPQLFPLKKIHQYEKALTDDEGEWGVLSDLPPGNEMLRQQIARRYLANGMDVSPDDIVITHGATEAITLCLQAVAKAGDVIALESPGYYALAHTVERLGMKVAELRTDPDSGIDLDALRATAGNVRIAAVILTANFQNPLGFVMPDAKKQALVAFLEEQQIPLIEDDVYGELYFSETAPKPAKAFDRSGLVLHCASFSKSLAPGYRVGWTVAGRYRQEVERLMFLNSLSMPSAPQIAIAKFMQRDSFERHLKQLRHTLRSQYVLIRNVIEESFPAGTQLSAPKGGYVIWVNLPAPLDALKLYRAAIDNGITVAPGTIFSRKKDLTHYIRLNFSHLWTLAIEQAVRQVGALACGMLADAGNGEA	not soluble

Reference: the DeepSol protein solubility set
